± gives the standard deviation of the averaged measurements.
tested on: ATP; assay: switch fluorescence ratio, 500 uM ATP over buffer (Cy3 cluster intensity, sum of 5 cycles each) (fold (ratio)); higher = stronger signal-on switching upon ATP binding; sequences stand for … in TCGTCGGCAGCGTCAGATGTGTATAAGAGACAGTTTTTTTTTTTTTTTTTTTTTTTTT…TC; conditions: aptamer strand: ATP DNA aptamer (quencher-CACCTGGGGGAGTATTGCGGAGGAAGG + anchor), 100 nM annealed; ATP concentration: 500 uM
Method in brief: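 For every switch-domain sequence, the fluorescence ratio is the mean of per-cluster values, each being summed target-cycle Cy3 intensity over summed buffer-cycle Cy3 intensity. Clusters outside 100-1000 RFU were excluded. On a modified Illumina MiSeq flow-cell, the Cy3-labelled switching-strand clusters were annealed to 100 nM quencher-labelled ATP aptamer, imaged in selection buffer and then after 15 min with 500 uM ATP at 22 °C. Five such cycles were run, with NaOH stripping and re-annealing between them.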
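Further: ATP exposure 15 min at 22 °C before imaging.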

| Sequence | switch fluorescence ratio |
| --- | --- |
| AAGGCGAGTA | 0.997 ± 0.017 |
| AAGGCGGGTT | 0.9894 ± 0.0085 |
| AAGGCGTAC | 1.24 ± 0.17 |
| AAGGCGTAGT | 0.979 ± 0.055 |
| AAGGCTTAGT | 1.01 ± 0.052 |
| AAGGGAAAGG | 1 ± 0.013 |
| AAGGGAACGG | 0.971 ± 0.022 |
| AAGGGAACTC | 1.03 ± 0.02 |
| AAGGGAATAA | 1.11 ± 0.11 |
| AAGGGACACA | 1.05 ± 0.011 |
| AAGGGAGATT | 0.968 ± 0.011 |
| AAGGGAGGAC | 0.9939 ± 0.002 |
| AAGGGAGGGC | 0.96 ± 0.032 |
| AAGGGATATG | 1 ± 0.013 |
| AAGGGATGAT | 0.978 ± 0.019 |
| AAGGGATTGA | 1.01 ± 0.011 |
| AAGGGCATTT | 1.04 ± 0.028 |
| AAGGGCCCAA | 1.004 ± 0.0074 |
| AAGGGCCCTT | 1.01 ± 0.018 |
| AAGGGCGAGC | 0.985 ± 0.1 |
| AAGGGCGCCC | 1.14 ± 0.18 |
| AAGGGCGGGT | 1.03 ± 0.014 |
| AAGGGCTCGG | 1.07 ± 0.14 |
| AAGGGCTGCA | 1.032 ± 0.0052 |
| AAGGGCTTCC | 1.98 ± 0.038 |

| Sequence | switch fluorescence ratio |
| --- | --- |
| AAGGGCTTTA | 1.01 ± 0.023 |
| AAGGGGCCTG | 0.977 ± 0.018 |
| AAGGGGCGTG | 0.997 ± 0.03 |
| AAGGGGCTCT | 0.993 ± 0.033 |
| AAGGGGCTTC | 0.985 ± 0.033 |
| AAGGGGGAGG | 0.982 ± 0.034 |
| AAGGGGGAGT | 0.996 ± 0.028 |
| AAGGGGGATG | 1.01 ± 0.035 |
| AAGGGGGGAG | 0.986 ± 0.026 |
| AAGGGGGGCA | 0.966 ± 0.037 |
| AAGGGGGGTA | 0.997 ± 0.037 |
| AAGGGGGTCA | 1.016 ± 0.0063 |
| AAGGGGGTGA | 1.01 ± 0.025 |
| AAGGGGTCTC | 0.998 ± 0.021 |
| AAGGGGTGAC | 0.977 ± 0.041 |
| AAGGGGTGG | 1.02 ± 0.029 |
| AAGGGGTTAG | 0.975 ± 0.016 |
| AAGGGGTTT | 1.03 ± 0.065 |
| AAGGGGTTTT | 1 ± 0.036 |
| AAGGGTATGG | 0.9729 ± 0.0076 |
| AAGGGTATTT | 1.01 ± 0.028 |
| AAGGGTCACC | 0.999 ± 0.031 |
| AAGGGTGCTC | 1.03 ± 0.047 |
| AAGGGTGTAA | 1.01 ± 0.069 |
| AAGGGTTATG | 0.994 ± 0.027 |

| Sequence | switch fluorescence ratio |
| --- | --- |
| AAGGGTTGGC | 0.983 ± 0.094 |
| AAGGGTTTCT | 1.02 ± 0.038 |
| AAGGGTTTGT | 0.986 ± 0.017 |
| AAGGTAATGG | 1.02 ± 0.014 |
| AAGGTACCAG | 1.03 ± 0.036 |
| AAGGTAGCTT | 1.011 ± 0.0094 |
| AAGGTAGGCC | 0.96 ± 0.016 |
| AAGGTATTGA | 0.9782 ± 0.0046 |
| AAGGTATTTT | 1.01 ± 0.037 |
| AAGGTCGGGT | 1.01 ± 0.043 |
| AAGGTGAATT | 1.06 ± 0.021 |
| AAGGTGGGGT | 1.03 ± 0.026 |
| AAGGTGGTTT | 0.957 ± 0.048 |
| AAGGTGTTCG | 0.957 ± 0.016 |
| AAGGTTAAGT | 1.02 ± 0.016 |
| AAGGTTAATA | 0.976 ± 0.08 |
| AAGGTTACGC | 1.05 ± 0.024 |
| AAGGTTATTG | 1.026 ± 0.0088 |
| AAGGTTGGAT | 0.987 ± 0.012 |
| AAGGTTGGTT | 0.983 ± 0.068 |
| AAGGTTTCGT | 1 ± 0.024 |
| AAGGTTTTCG | 1.01 ± 0.026 |
| AAGGTTTTGC | 0.99 ± 0.058 |
| AAGTAAATTT | 1.0226 ± 0.0004 |
| AAGTAACGCG | 0.977 ± 0.013 |

| Sequence | switch fluorescence ratio |
| --- | --- |
| AAGTAACGTC | 1.041 ± 0.01 |
| AAGTAAGGGG | 0.955 ± 0.054 |
| AAGTAATGGA | 1.04 ± 0.06 |
| AAGTACGACT | 1.1 ± 0.016 |
| AAGTACGCGG | 1.01 ± 0.046 |
| AAGTACGGCC | 1.16 ± 0.025 |
| AAGTACTCCA | 1.335 ± 0.0082 |
| AAGTAGGGGA | 1.02 ± 0.021 |
| AAGTAGGTAG | 0.9786 ± 0.002 |
| AAGTAGTCGT | 1.01 ± 0.05 |
| AAGTATGCTT | 1.01 ± 0.021 |
| AAGTCAAAGT | 1.03 ± 0.051 |
| AAGTCAGAGC | 0.97 ± 0.097 |
| AAGTCAGCGA | 1.02 ± 0.014 |
| AAGTCAGTTG | 1.02 ± 0.059 |
| AAGTCATTAA | 0.99 ± 0.031 |
| AAGTCCACAC | 1.05 ± 0.041 |
| AAGTCCGGCA | 1 ± 0.037 |
| AAGTCCGTTG | 1.009 ± 0.0083 |
| AAGTCCGTTT | 1.02 ± 0.044 |
| AAGTCCTGCC | 1.26 ± 0.081 |
| AAGTCCTTGT | 1.02 ± 0.013 |
| AAGTCGAGTG | 0.994 ± 0.075 |
| AAGTCGCGTT | 0.991 ± 0.0024 |
| AAGTCGGGAC | 1.08 ± 0.039 |

| Sequence | switch fluorescence ratio |
| --- | --- |
| AAGTCGTCGA | 1.028 ± 0.0025 |
| AAGTCTCGGG | 0.995 ± 0.0026 |
| AAGTGAATAT | 1.012 ± 0.0095 |
| AAGTGATATA | 1.01 ± 0.017 |
| AAGTGATGGT | 0.9999 ± 0.0069 |
| AAGTGCAGCC | 1.01 ± 0.023 |
| AAGTGCATGG | 0.986 ± 0.036 |
| AAGTGCCGAG | 0.989 ± 0.027 |
| AAGTGCGGCG | 1.03 ± 0.029 |
| AAGTGGAATT | 1.03 ± 0.018 |
| AAGTGGATCT | 0.988 ± 0.078 |
| AAGTGGATTG | 1.003 ± 0.01 |
| AAGTGGCATG | 0.974 ± 0.022 |
| AAGTGGTATT | 0.992 ± 0.029 |
| AAGTGGTCCT | 0.996 ± 0.018 |
| AAGTGGTGGG | 0.985 ± 0.024 |
| AAGTGGTGGT | 0.989 ± 0.011 |
| AAGTGTGACT | 1 ± 0.019 |
| AAGTGTGGGC | 0.984 ± 0.023 |
| AAGTGTTGTC | 1.1 ± 0.033 |
| AAGTTAATTC | 1.013 ± 0.0081 |
| AAGTTAGTTT | 0.966 ± 0.043 |
| AAGTTATCTG | 1.03 ± 0.027 |
| AAGTTATGTA | 1.01 ± 0.031 |
| AAGTTATTGT | 1.21 ± 0.33 |

| Sequence | switch fluorescence ratio |
| --- | --- |
| AAGTTCAAGA | 0.99 ± 0.045 |
| AAGTTCCGAG | 1.18 ± 0.045 |
| AAGTTCGGG | 1.035 ± 0.0057 |
| AAGTTCGGGA | 1 ± 0.029 |
| AAGTTCGGTG | 0.9695 ± 0.0027 |
| AAGTTCGTTG | 1.01 ± 0.036 |
| AAGTTGATGT | 1 ± 0.017 |
| AAGTTGCTAG | 0.9976 ± 0.0048 |
| AAGTTGGAGG | 0.9797 ± 0.0024 |
| AAGTTGGCGC | 1.01 ± 0.037 |
| AAGTTGGGG | 0.99 ± 0.039 |
| AAGTTGGGT | 0.95 ± 0.017 |
| AAGTTGGGTA | 0.978 ± 0.024 |
| AAGTTGTGCT | 0.972 ± 0.014 |
| AAGTTGTGGC | 1.01 ± 0.017 |
| AAGTTGTGGT | 1.01 ± 0.023 |
| AAGTTTAGTA | 1.01 ± 0.029 |
| AAGTTTATCA | 1.003 ± 0.0032 |
| AAGTTTGGGA | 1.07 ± 0.091 |
| AAGTTTGGGG | 0.983 ± 0.043 |
| AAGTTTGTTG | 0.986 ± 0.023 |
| AAGTTTTAAA | 0.968 ± 0.013 |
| AAGTTTTATT | 0.992 ± 0.043 |
| AAGTTTTCGG | 0.989 ± 0.052 |
| AAGTTTTGAG | 1.03 ± 0.019 |

| Sequence | switch fluorescence ratio |
| --- | --- |
| AAGTTTTGTA | 0.985 ± 0.05 |
| AAGTTTTTCC | 1.04 ± 0.021 |
| AAGTTTTTTC | 1.012 ± 0.0053 |
| AATAAAAATG | 1.02 ± 0.027 |
| AATAAACGCT | 1.04 ± 0.074 |
| AATAAAGGGG | 1.19 ± 0.25 |
| AATAAATCCT | 1.22 ± 0.021 |
| AATAAATTGA | 1.02 ± 0.04 |
| AATAACTCCG | 1.224 ± 0.008 |
| AATAAGAAAT | 0.994 ± 0.015 |
| AATAATCAAA | 1.01 ± 0.006 |
| AATACAAGGC | 1.076 ± 0.006 |
| AATACCAAAT | 0.999 ± 0.049 |
| AATACCGGCA | 1.04 ± 0.045 |
| AATACCTTTC | 2.3 ± 0.14 |
| AATACGGGG | 0.985 ± 0.016 |
| AATACGGGGG | 1.03 ± 0.13 |
| AATAGAACTT | 1.02 ± 0.061 |
| AATAGAGGAT | 0.971 ± 0.039 |
| AATAGATATG | 1.01 ± 0.0018 |
| AATAGCATTG | 0.972 ± 0.029 |
| AATAGCGACT | 1.026 ± 0.0052 |
| AATAGGACAA | 0.982 ± 0.037 |
| AATAGGATAG | 1.02 ± 0.011 |
| AATAGGCACC | 0.993 ± 0.018 |

| Sequence | switch fluorescence ratio |
| --- | --- |
| AATAGGCATG | 0.979 ± 0.0098 |
| AATAGGCGCG | 1.02 ± 0.014 |
| AATAGGGTCG | 0.975 ± 0.064 |
| AATAGGTTGT | 0.992 ± 0.015 |
| AATAGTGCCC | 0.999 ± 0.053 |
| AATAGTGGTA | 1 ± 0.029 |
| AATAGTGTCC | 1.01 ± 0.032 |
| AATAGTTATT | 0.9791 ± 0.003 |
| AATATAAAGG | 1 ± 0.031 |
| AATATACGT | 1.05 ± 0.032 |
| AATATAGGAA | 1.016 ± 0.0092 |
| AATATATCGC | 0.977 ± 0.018 |
| AATATCGGGT | 0.97 ± 0.019 |
| AATATCTGTT | 0.997 ± 0.019 |
| AATATCTTGC | 1.05 ± 0.028 |
| AATATGAAGG | 1 ± 0.019 |
| AATATGTAAT | 0.989 ± 0.021 |
| AATATGTTTT | 1.01 ± 0.026 |
| AATATTTAAC | 0.9828 ± 0.0024 |
| AATATTTGAA | 1.02 ± 0.021 |
| AATATTTTAT | 1.014 ± 0.0022 |
| AATATTTTCG | 0.998 ± 0.038 |
| AATATTTTGT | 0.9833 ± 0.004 |
| AATCAAACTA | 1.05 ± 0.028 |
| AATCAAGTCT | 0.999 ± 0.011 |

— the supplement of paper PMC10126150
